Results: paper PMC5688999 (RNA, 2017)
Each block holds one binder with its values, some of them ahead of it. No end group written: not given here.

Tests used:
[1] = molecular target: T1, Mtr4-ΔN (helicase region of Mtr4, residues 81–1073) (S. cerevisiae, UniProt P47047 81-1073); experiment: ITC
T1 sequence (looked up): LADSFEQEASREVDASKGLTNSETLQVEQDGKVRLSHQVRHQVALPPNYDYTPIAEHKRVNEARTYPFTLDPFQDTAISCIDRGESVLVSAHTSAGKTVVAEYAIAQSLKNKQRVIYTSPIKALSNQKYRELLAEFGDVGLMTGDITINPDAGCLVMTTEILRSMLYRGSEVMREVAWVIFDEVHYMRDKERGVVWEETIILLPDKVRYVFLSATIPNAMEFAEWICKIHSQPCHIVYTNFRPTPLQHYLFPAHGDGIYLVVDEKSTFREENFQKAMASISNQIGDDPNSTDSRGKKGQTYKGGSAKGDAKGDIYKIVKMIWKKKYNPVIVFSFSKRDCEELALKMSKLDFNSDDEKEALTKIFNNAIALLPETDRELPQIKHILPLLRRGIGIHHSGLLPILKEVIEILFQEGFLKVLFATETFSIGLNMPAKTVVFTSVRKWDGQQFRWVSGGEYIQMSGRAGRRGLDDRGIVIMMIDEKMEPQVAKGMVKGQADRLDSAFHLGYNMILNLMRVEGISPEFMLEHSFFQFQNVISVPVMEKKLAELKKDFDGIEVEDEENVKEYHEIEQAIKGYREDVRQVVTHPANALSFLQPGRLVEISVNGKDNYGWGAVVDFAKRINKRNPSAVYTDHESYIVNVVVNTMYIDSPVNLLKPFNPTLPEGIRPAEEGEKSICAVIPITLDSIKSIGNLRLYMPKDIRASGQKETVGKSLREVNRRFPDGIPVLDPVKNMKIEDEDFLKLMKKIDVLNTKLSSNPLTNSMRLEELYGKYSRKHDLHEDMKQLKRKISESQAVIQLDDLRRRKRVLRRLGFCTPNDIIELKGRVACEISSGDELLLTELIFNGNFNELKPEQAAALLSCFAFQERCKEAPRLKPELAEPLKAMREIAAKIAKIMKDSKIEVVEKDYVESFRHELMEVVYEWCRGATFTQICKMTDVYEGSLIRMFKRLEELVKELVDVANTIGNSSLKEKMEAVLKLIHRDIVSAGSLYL

[2] = molecular target: T2, GST-tagged yeast Mtr4 short arch (GST-Mtr4^SA, residues 638–842), wild type (S. cerevisiae, UniProt P47047 638-842); experiment: pull-down
T2 sequence (looked up): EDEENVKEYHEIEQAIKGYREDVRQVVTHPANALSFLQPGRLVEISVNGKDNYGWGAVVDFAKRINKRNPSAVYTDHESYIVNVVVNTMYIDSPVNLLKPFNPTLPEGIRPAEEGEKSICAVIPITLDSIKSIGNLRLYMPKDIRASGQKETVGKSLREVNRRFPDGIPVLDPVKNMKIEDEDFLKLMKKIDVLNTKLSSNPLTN

Kd [1]: ~20 µM
B1: Utp18_(prot) (Utp18 residues 78–110) (domain or fragment, S. cerevisiae, UniProt P40362 78-110, looked up)
chain: HVNNDQLFFVDDGGNEDSQDKNEDTMDVDDEDD

Kd [1]: ~18 µM
B2: Nop53_(prot) (Nop53 residues 58–91) (domain or fragment, S. cerevisiae, UniProt Q12080 58-91, looked up)
chain: DALFHVDVEGDEILKNKLIKRKQIKKVLKSKEIL

binding result [2]: binds
B3: Z-tagged Nop53 (residues 48–99) (domain or fragment, S. cerevisiae, UniProt Q12080 48-99, looked up)
chain: GTSDITSLQNDALFHVDVEGDEILKNKLIKRKQIKKVLKSKEILDAVKTNSK
modifications: also: Z-tagged
